Source: US20180222961A1 (IMMATICS BIOTECHNOLOGIES, published 2018)

Columns and labels:
HLA-A*24:02 = biological target: T1, HLA-A*24:02 (human); assay: UV-exchange b2m ELISA; exchange-yield grade
T1 construct: also called peptide-receptive MHC molecules
How it was run: (§1)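 Absorbance at 450 nm after HRP anti-β2m detection gives the yield of UV-mediated ligand exchange, quantified against HLA-A*02:01/MLA-001 monomer standards. Only peptides that bind and stabilise peptide-receptive MHC keep the complex intact after UV cleavage of the conditional ligand.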

[1] = biological target: T2, human recombinant HLA-B*08:01 and b2m (human); assay: pMHC dissociation assay at 37 C; mean half-life grade
T2 construct: expressed in E. coli and purified; stability of the peptide-MHC complex read as b2m associated with the heavy chain over time at 37 C
Procedure: Peptide-MHC stability assays for HLA-B*08:01 peptides were performed. The data were obtained using a proximity based, homogenous, real-time assay in order to measure the dissociation of peptides from HLA class I molecules. First, human recombinant HLA-B*08:01 and b2m were expressed in E. coli and purified in a series of liquid chromatography based steps (Ferre et al., 2003; Ostergaard et al., 2001). Then, the stability of a peptide-MHC complex (pMHC) was determined by measuring the amount of b2m associated with the MHC heavy chain over time at 37° C. (Harndahl et al., 2012). The stability of each pMHC, expressed as the half life of b2m associated with the respective heavy chain, was calculated by fitting the data to a one-phase dissociation equation.

HLA-A*01:01 = biological target: T3, HLA-A*01:01 (human); assay: UV-exchange b2m ELISA; exchange-yield grade
T3 construct: also called peptide-receptive MHC molecules
How it was run: as §1

HLA-A*02:01 = biological target: T4, HLA-A*02:01 (human); assay: UV-exchange b2m ELISA; exchange-yield grade
T4 construct: also called peptide-receptive MHC molecules
How it was run: as §1

Binder | peptide exchange yield (HLA-A*24:02) [%] | mean half-life (T1/2) of peptide-MHC complex [1] [h] | other results
IYSPQFSRL | > 75 | – | –
MLRKIAVAA | – | 2 to 4 | –
QAKTHSTL | – | 2 to 4 | –
SYNEHWNYL | > 75 | – | –
KYVAELSLL | > 75 | – | –
QGLLRPVF | – | 4 to 6 | –
VLKHKLDEL | – | 2 to 4 | –
VMEQSAGIMY | – | – | peptide exchange yield (HLA-A*01:01): 20 to 50%
SLGKHTVAL | – | – | peptide exchange yield (HLA-A*02:01): 50 to 75%
FAFRKEAL | – | 4 to 6 | –
HVKEKFLL | – | 4 to 6 | –
ALQAFEFRV | – | – | peptide exchange yield (HLA-A*02:01): > 75%
MGSARVAEL | – | 4 to 6 | –
LLDEGAMLLY | – | – | peptide exchange yield (HLA-A*01:01): > 75%
SPVTSVHGGTY | – | – | peptide exchange yield (HLA-A*01:01): 20 to 50%
MPNLRSVDL | – | 4 to 6 | –
SIKTKSAEM | – | 6 to 10 | –
DMKYKNRV | – | 2 to 4 | –
FVDNQYWRY | – | – | peptide exchange yield (HLA-A*01:01): 50 to 75%
VYTPTLGTL | > 75 | – | –
YLLEKSRVI | – | 4 to 6 | –
YPKARLAF | – | 6 to 10 | –

Binder | peptide exchange yield (HLA-A*24:02) [%] | mean half-life (T1/2) of peptide-MHC complex [1] [h] | other results
TVTGAEQIQY | – | – | peptide exchange yield (HLA-A*01:01): 20 to 50%
HLLLKVLAF | – | 4 to 6 | –
KLKERNREL | – | 6 to 10 | –
YLVTKVVAV | – | – | peptide exchange yield (HLA-A*02:01): > 75%
SFAPRSAVF | > 75 | – | –
VLLDEGAMLLY | – | – | peptide exchange yield (HLA-A*01:01): 20 to 50%
KYPVHIYRL | > 75 | – | –
LNKQKVTF | – | > 10 | –
LPKLAGLL | – | 2 to 4 | –
SLRLKNVQL | – | 2 to 4 | –
VYNHTTRPL | > 75 | – | –
VYTFLSSTL | > 75 | – | –
KYVKVFHQF | > 75 | – | –
TPKLRETSI | – | 4 to 6 | –
VFVSFSSLF | 50 to 75 | – | –
LPRLKAFMI | – | 4 to 6 | –
TSMPRSSAM | – | 6 to 10 | –
DMKKAKEQL | – | 2 to 4 | –
EAMKRLSYI | – | 2 to 4 | –
MYKMKKPI | – | 2 to 4 | –
MAAVKQAL | – | 4 to 6 | –
VLLAGFKPPL | – | – | peptide exchange yield (HLA-A*02:01): 10 to 20%

Binder | peptide exchange yield (HLA-A*24:02) [%] | mean half-life (T1/2) of peptide-MHC complex [1] [h] | other results
RFTTMLSTF | > 75 | – | –
RYSDSVGRVSF | > 75 | – | –
NAMLRKVAV | – | 2 to 4 | –
FYFPTPTVL | > 75 | – | –
VYHDDKQPTF | > 75 | – | –
SYSDLHYGF | > 75 | – | –
ALKARTVTF | – | 6 to 10 | –
ALKTTTTAL | – | 2 to 4 | –
SYFRGFTLI | > 75 | – | –
RYGPVFTV | > 75 | – | –
DMDEEIEAEY | – | – | peptide exchange yield (HLA-A*01:01): 20 to 50%
RYLAVVHAVF | > 75 | – | –
RWEKTDLTY | – | – | peptide exchange yield (HLA-A*01:01): 20 to 50%
TAYMVSVAAF | 50 to 75 | – | –
QLDSNRLTY | – | – | peptide exchange yield (HLA-A*01:01): 50 to 75%
VGREKKLAL | – | 4 to 6 | –
VLLPRLVSC | – | 2 to 4 | –
DVKKKIKEV | – | 2 to 4 | –
TSHERLTTL | – | 4 to 6 | –
KYEKIFEML | > 75 | – | –
LYQPRASEM | 50 to 75 | – | –
